In the supplement of paper PMC12764529:

Assay: folding stability dG unfold (combined trypsin and chymotrypsin); higher = more stable
Experimental: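 Folding stability of de novo designed mini-proteins (<80 aa, no Cys; designed by TrROS, TrMRF, ProteinMPNN and the joint model) was measured by cDNA display proteolysis with trypsin and chymotrypsin. Each protease was used at 11 concentrations in a threefold dilution series plus a no-protease condition. K50 was inferred by Bayesian fitting of sequencing counts, and dG unfold was derived against a sequence-predicted unfolded-state K50 (Tsuboyama et al. method). Sequences shown include variable-length N-terminal GS-type padding (SAGGSAGG...) inside a display construct carrying a PA tag. Rows were kept only if the AF2 dimer inter-PAE was >15, to exclude likely homo-oligomers.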

Row | Sequence | folding stability dG unfold
1 | SAGGSAGGSISPEAAKEGPLTIEVSWMHPDGRTEEEEFPIGQPIKIPPDFKDRPPQITSIRPRSAGGSAGGS [r12_161_TrROS] | < -1 kcal/mol
2 | SSAEEVARARFEAAGWDWRPLARDPVKRTVRFEVRPPDRPPRLYEVVVDPSRDTVNLEEDPATGRVVVPGSA [r9_1119_JUSTAS] | < -1 kcal/mol
3 | SAGGSAGGSAGGNTRYIPMPPDDIEELIEEAKDEGIDNVIIHNPENGRWIKITGDKIKPVSAGGSAGGSAGG [r7_564_TrROS] | < -1 kcal/mol
4 | SAGGSAGGSAGGIYIPMDDLKKNGMSIEQFADKLGHPVEIEVERNEPGSPVFKIEPDAKSAGGSAGGSAGGS [r10_855_TrROS] | < -1 kcal/mol
5 | SAGGSAGGSSMSFSFSERRDGKEYSVSVTTAVTPLTLPNGTLRTLTTPTTTVTDPSGKVLSTSSAGGSAGGS [r20_224_JUSTAS] | < -1 kcal/mol
6 | SAGGSAGGSAMNVKFFKLSENELRIEYNEIEEFEDGSLSEEIKTEILKLNLPEDDKKVKELLSAGGSAGGSA [r18_215_JUSTAS] | < -1 kcal/mol
7 | SNMPIFVRIEHNDGKEVEIPIKGSREQLKDNIQEEIQEYAQENGHKPRSIKVEVYDFGNNQEQTRTIPVKSA [r9_1193_TrROS] | < -1 kcal/mol
8 | SAGGSAGGSAGGGSVTESPSYVVTRSADPAGPALYTVTDLSTGVPSSSTVAPDAPAVVPPSAGGSAGGSAGG [r7_177_JUSTAS] | < -1 kcal/mol
9 | SAGGSAGGSAGGMPELEKEGYKVEKFTIFEPDPLKPVGEVTVLTEVPKPKLLEGGSTSGLSAGGSAGGSAGG [r7_959_JUSTAS] | < -1 kcal/mol
10 | SAGGSAGGSAGGSGSFDPENGTIEIRVPKTKKPVKIPFPEEEADEFAENLPPNLDRVHFSAGGSAGGSAGGS [r4_282_TrROS] | < -1 kcal/mol
11 | SAGGSEEFEFRDPFNGEEFEVTRDPNNGELDVEYPNGWKMRISITDDRFEIVEMKPVPPPPVDPDQKSAGGS [r16_687_TrROS] | < -1 kcal/mol
12 | SAGGSAGGSMSIPSDATLVRTYRRGGEELTVSGSVDPATGTVLSEGSLSKRPDATLTEVSVVSSAGGSAGGS [r12_6_JUSTAS] | < -1 kcal/mol
13 | SAGGSATTTEKWTIGDPSGPPRTVDLTKLPNSDEYLITVTYPDPNHTETGLLSEEEIKKIPNAVPKSAGGSA [r15_622_JUSTAS] | < -1 kcal/mol
14 | SAGGSAGGSAGGGSVHMPPLINWQEEEFEYESEEPVHIKRLVYKHPYSNEVEEEIEILLSAGGSAGGSAGGS [r10_881_JUSTAS] | < -1 kcal/mol
15 | SAGGSVLPPDAVVYGTETRPFPNGETVEVERERRFPPRPPAPAGVLVEYPDGTVVPAPSPEEAAALLSAGGS [r16_580_JUSTAS] | < -1 kcal/mol
16 | SAGGSAMERRTFNLPADRVSPEVLLEKLKAVGLTPTEIKPVPDGVEVVVEYDPSKVEKLEKALKEGSAGGSA [r15_161_JUSTAS] | < -1 kcal/mol
17 | SAGGSAGGSPLYIQIERRNPKNGENQTLELPIPIDGDPSDARDIAKEIAEQLPPNDYKIEVFRSAGGSAGGS [r12_871_TrROS] | < -1 kcal/mol
18 | SAGGSAGGSMKTVTIEVKRPSPDITLEDIKEELLKKNPEVEEVEVEEYPEEGLYKVKVTIKPKSAGGSAGGS [r20_31_JUSTAS] | < -1 kcal/mol
19 | SAGGSAGGSAGGSTLEEIREMAKQGKKFKIRNPGNNQEHEIRPDDLDDFRGSPISIEPVSAGGSAGGSAGGS [r4_157_TrROS] | < -1 kcal/mol

Row | Sequence | folding stability dG unfold
20 | SAGGSAGGSAIKIPPGYWVRGEFPNVTRHIPIDDIDELKKTFPGNPIRDIEVYDPEDGKPISAGGSAGGSAG [r3_134_TrROS] | < -1 kcal/mol
21 | SAGGSPPLVVEEELLSEKTLPEPGTGTVTLTRRTIRDPTADVEWEERFTVTTPPDGSVEVSSTRERLLSAGG [r13_917_JUSTAS] | < -1 kcal/mol
22 | SAGGSAGGSAGGEIKVRIDEYDPPSGFFRIEPPDGRTRQIPVPPGMNPEDLKGDTVTLKPSAGGSAGGSAGG [r7_296_TrROS] | < -1 kcal/mol
23 | SAGGSAGGSAGGNIEIEVERNPENGYYTVEIKFNNPPIEIMVPRGMPKEQAKDWAKDLISAGGSAGGSAGGS [r10_192_TrROS] | < -1 kcal/mol
24 | SAGGSANFKIRMPNGRPMDIQPDPEGETWVIRMPGGHIIPIEIKDGKLKDIKILPGMPPNWSIEPVSAGGSA [r15_709_TrROS] | < -1 kcal/mol
25 | SAKITITLPNGKKIEIELPEGYEIVEVTFDKETGVITIKVKNKETGKEYKITLTFNEDGSLTISIEEVDSAG [r14_311_TrROS_Hall] | > 6 kcal/mol
26 | SAGGSAGGSAGIKIPSNYKYKIEKSKDDYYEIYTEDKNKKFIVPKNAPIVVFEDNTVYVKSAGGSAGGSAGG [r17_49_TrMRF] | < -1 kcal/mol
27 | SAGGSAGGSAGGMKVTVETFEGPDFEIVTERSPEGKVKVFTIKPNEVKEEVIPLENPELSAGGSAGGSAGGS [r10_1169_JUSTAS] | < -1 kcal/mol
28 | MTRTIVAEDMSIEEVKERIEALGAAEPEKGTTVVVEYPGNPEELKKLPIDKIEPREEPERESLVATKTFPAS [r1_467_JUSTAS] | < -1 kcal/mol
29 | SAGGSAGGSAGGPDIKEAKPGLYPDKPVIYFKLPDREVVLFPGPKERFVKFGDKVLKIPSAGGSAGGSAGGS [r10_559_TrMRF] | < -1 kcal/mol
30 | SAPEVSVEEEEEEITDPVTGEKTTVYKITTKITLPDPNSSKKVTLTKPVIVEKTKSGTKVTEKPVFLLLSAG [r14_339_JUSTAS] | < -1 kcal/mol
31 | SAGGSAGGSASSWTLLSTEKLGSKTRTTMNDPANGKTVTIETDPANGSKVVKVENKETEIESAGGSAGGSAG [r3_297_JUSTAS] | < -1 kcal/mol
32 | SAGGSTVVTEVSVSPGNPTLTLDSKTPDGKVVAKRVAAPADATATFEVKQTINGNPVITTVTQAPEASAGGS [r16_672_JUSTAS] | < -1 kcal/mol
33 | SAGGSAGGSAGGVVSPSSEPVEMTVEEVILETERVPESGESLRPLPVRRVLRTVTNFGLSAGGSAGGSAGGS [r10_122_JUSTAS] | < -1 kcal/mol
34 | SAGGSAGGSAGGMEDVKLLSKSYIPETNELEVTVEIPGGELVNIPLKPGVTDEDVLKLISAGGSAGGSAGGS [r10_984_JUSTAS] | < -1 kcal/mol
35 | SAGGSAGGSAKHDVKIDDVERMPNPYRFTITFPGNGKPIPIPFRPNMSIDEMKKEAKELAKSAGGSAGGSAG [r3_142_TrROS] | < -1 kcal/mol
36 | SAGGSAGGSAPDMYRIRAKFPDGKPFPIEFNPEDGQIEVWDGNKEQTIPPGKPIKIDKIEPVSAGGSAGGSA [r18_144_TrROS] | < -1 kcal/mol
37 | SAGSVTATITLPSGETVTVDVAPDEERILTTPEGRLLRLTDVRPGAVAFTEGENFVPDEDGNLVPLSLLSAG [r5_417_JUSTAS] | < -1 kcal/mol
38 | DFLELPGGWKVTEILEKKRLSDGTVEIKAVVKDPNNPVETEIDVKIPIPEVPEVPVEVRLIPGTGELIGILS [r1_411_JUSTAS] | < -1 kcal/mol

Row | Sequence | folding stability dG unfold
39 | SAGGMKKRVEIPEELKKAYPDLVVEDQEVPEDSVDVTVRLPTADLKVPQVVLSPDGNPLRSFTLTSSPSAGG [r13_129_JUSTAS] | < -1 kcal/mol
40 | SAGGPNKKIKIVMDPDDPNMPMSEIANFMQKEGFEPVEMVPADNLPPEKAREEAEEEGKPVIEIPFNSAGGS [r16_94_TrROS] | < -1 kcal/mol
41 | SAGGSAKIVIPGMSPSMIRHAIKEGVKKIHIVWPNPEQAKGFKKELEKEDGIPIKVVPAEEAKKLESAGGSA [r15_243_TrROS] | < -1 kcal/mol
42 | SATTTTETLPDGGVLTTTTLPDGSPATGLIDPANGAPFTATHPNGLRTVWSQSPSGKVTTLSTTNVPPSSAG [r14_877_JUSTAS] | < -1 kcal/mol
43 | SAGGSAGGSAGGSKLPPGAKVKIRFPNNNKEHEIKSPEQIKTFEIDGREMKIRKIEVEDSAGGSAGGSAGGS [r4_214_TrROS] | < -1 kcal/mol
44 | SAGGSAGGSSMTPVSSTRSSPSNSVTYTTSRIPIDPSPGKVLNVTTTYSPDPSVTTTTTTVEPSSAGGSAGG [r6_13_JUSTAS] | < -1 kcal/mol
45 | SAGGDNVKLRFYDPNGRLKIDEINPENGNIKVEYEGPGKPRERTVDADPDEAIDEIADNFPFPLEIEKSAGG [r13_141_TrROS] | < -1 kcal/mol
46 | SAGGMVETTETVVEPGRIRVERRVTLPDGTEVEEVEEVPPAAGGVWEVRSRVRRGEGEEEVARREVAPSAGG [r13_728_JUSTAS] | < -1 kcal/mol
47 | STLENIEYIKLPKNKTLPLPGGETISPDEEIAIDLDKKKYINKEELEELKKKIEEELEKKKPKENPKNLISA [r9_517_JUSTAS] | < -1 kcal/mol
48 | SAGGSAGGSAGGPEGQWIDMDVEHNPKNNKLTIKFPDSGKPITIPANNIERVGDYIRINSAGGSAGGSAGGS [r10_942_TrROS] | < -1 kcal/mol
49 | SAGGSAGGSASMRTITITSSTSPSGPPLPAAELAAELAKEGYTVTDPRRVPAEGKLVFTVVASAGGSAGGSA [r18_466_JUSTAS] | < -1 kcal/mol
50 | SAGAAKEVFHETFPHPAGGPVELARNPGLDWVVLYNAGTGEPTVVPVAADETLVFPAAPGGASTFAVTSAGG [r19_118_TrMRF] | < -1 kcal/mol
51 | SAGGPDDYPIRIAVYPPDGEIKEEITIPNNWTIKYFPNDDPRIMIQDPGNGETVPVKTPEDIKDLIQSAGGS [r8_232_TrROS] | < -1 kcal/mol
52 | SAGGSAGGSAGPPGEPKPKPERKTVHINIPYPPGHPEMREKARELANELQDEGAKVEIYWSAGGSAGGSAGG [r11_519_TrROS] | < -1 kcal/mol
53 | SAGGKAELAANPGVVRVEVELVDPSGPVALPTREYLYPEGDPAALRAAIEAEIPADLAVARVTFTRLGSAGG [r13_849_JUSTAS] | < -1 kcal/mol
54 | SAGGSAGGGMITVPLSEEISMANLPEEERAAGEELGPGSVIRKLLEIKKYPVKPFRFIEKDKILSAGGSAGG [r6_547_JUSTAS] | < -1 kcal/mol
55 | SAGGMITVLEEEVEERGDELVVTRLVRVSSEEDVEALANDGVPDTAREVRRLPDGTLLAELTETVPPPSAGG [r13_506_JUSTAS] | < -1 kcal/mol
56 | SAGGSAGGVSKVLEVRPAPGSGTYTVRTLREDPATGTTTEEVLTIPTSRPEVVDSLPPDATVELSAGGSAGG [r6_979_JUSTAS] | < -1 kcal/mol
57 | SAGGSVDVDEEEAEKLIEEALKKGLEVTITARLPDGGVRVLKYEGPDRKRTVIEELPVPPSPLNPALLSAGG [r13_839_JUSTAS] | < -1 kcal/mol
